Experimental data as given in PMC314469, “Protein Interaction Networks by Proteome Peptide Scanning” (PLoS Biology, 2004).

Biological target: T1, Rvs167 SH3 (RV167_YEAST), P39743
T1 chain: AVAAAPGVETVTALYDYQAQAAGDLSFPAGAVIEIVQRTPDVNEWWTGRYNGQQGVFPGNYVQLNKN
Assay: SPOT array

Binder | normalised SPOT signal, Boehringer light units (BLU); mean over the file's lines of this peptide
GNNSRNIPPPPPPP [YMR089C 148-161] | 49.6
GLDLKWEPSTPQRK [YLR460C 162-175] | 73
GLMSKLGPNLPASI [YLR092W 403-416] | 275
GLNLKWEPSTPQRN [YCR102C 154-167] | 10.9
GSLVKTKPTLPLTK [YLR339C 59-72] | 21.1
GIMIKAKPSSPYTY [YLR260W 30-43] | 248
GQQKRFSPSLPSAV [YKL088W 110-123] | 111
GRHLKNIPRIPIFS [YLR106C 2506-2519] | 176
GLVLRSTPVIPDMK [YPR019W 330-343] | 5260
GIKVKRIPYSPKSI [YMR309C 639-652] | 57.5
GKDHRLAPNGPGMH [YDR333C 253-266] | 3.1
GKMVKWGPLRPFLS [YOL072W 279-292] | 1050
GQIDRDKPSEPERT [YJL184W 45-58] | 47.7
GRSLRKRPTSPSIS [YJR059W 48-61] | 1120

Biological target: T2, Myo5 SH3 (MYO5_YEAST), Q04439
T2 chain: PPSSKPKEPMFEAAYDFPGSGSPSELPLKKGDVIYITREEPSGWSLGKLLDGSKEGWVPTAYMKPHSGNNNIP
Assay: SPOT array

Binder | normalised SPOT signal, Boehringer light units (BLU); mean over the file's lines of this peptide
GNNSRNIPPPPPPP [YMR089C 148-161] | 10300
GLDLKWEPSTPQRK [YLR460C 162-175] | 164
GLMSKLGPNLPASI [YLR092W 403-416] | 287
GLNLKWEPSTPQRN [YCR102C 154-167] | 105
GSLVKTKPTLPLTK [YLR339C 59-72] | 422
GIMIKAKPSSPYTY [YLR260W 30-43] | 236
GQQKRFSPSLPSAV [YKL088W 110-123] | 728
GRHLKNIPRIPIFS [YLR106C 2506-2519] | 1040
GLVLRSTPVIPDMK [YPR019W 330-343] | 209
GIKVKRIPYSPKSI [YMR309C 639-652] | 391
GKDHRLAPNGPGMH [YDR333C 253-266] | 218
GKMVKWGPLRPFLS [YOL072W 279-292] | 645
GQIDRDKPSEPERT [YJL184W 45-58] | 100
GRSLRKRPTSPSIS [YJR059W 48-61] | 820

Biological target: T3, Boi1 SH3 (BOI1_YEAST), P38041
T3 chain: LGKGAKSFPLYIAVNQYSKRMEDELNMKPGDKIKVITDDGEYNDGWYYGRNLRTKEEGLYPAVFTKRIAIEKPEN
Assay: SPOT array

Binder | normalised SPOT signal, Boehringer light units (BLU); mean over the file's lines of this peptide
GNNSRNIPPPPPPP [YMR089C 148-161] | 61.5
GLDLKWEPSTPQRK [YLR460C 162-175] | 2030
GLMSKLGPNLPASI [YLR092W 403-416] | 118
GLNLKWEPSTPQRN [YCR102C 154-167] | 447
GSLVKTKPTLPLTK [YLR339C 59-72] | 907
GIMIKAKPSSPYTY [YLR260W 30-43] | 69.6
GQQKRFSPSLPSAV [YKL088W 110-123] | 1200
GRHLKNIPRIPIFS [YLR106C 2506-2519] | 702
GLVLRSTPVIPDMK [YPR019W 330-343] | 116
GIKVKRIPYSPKSI [YMR309C 639-652] | 136
GKDHRLAPNGPGMH [YDR333C 253-266] | 2160
GKMVKWGPLRPFLS [YOL072W 279-292] | 64.2
GQIDRDKPSEPERT [YJL184W 45-58] | 15
GRSLRKRPTSPSIS [YJR059W 48-61] | 370

The binders below were run against Sho1 SH3 (SHO1_YEAST), P40073 (assay: SPOT array).
Sequence of Sho1 SH3 (SHO1_YEAST), P40073 (P40073 295-366): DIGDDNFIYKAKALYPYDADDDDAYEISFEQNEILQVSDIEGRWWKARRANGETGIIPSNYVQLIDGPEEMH

Binder | normalised SPOT signal, Boehringer light units (BLU); mean over the file's lines of this peptide
GNNSRNIPPPPPPP [YMR089C 148-161] | 28.3
GLDLKWEPSTPQRK [YLR460C 162-175] | 62.6
GLMSKLGPNLPASI [YLR092W 403-416] | 63.1
GLNLKWEPSTPQRN [YCR102C 154-167] | 62.8
GSLVKTKPTLPLTK [YLR339C 59-72] | 22.8
GIMIKAKPSSPYTY [YLR260W 30-43] | 62.2
GQQKRFSPSLPSAV [YKL088W 110-123] | 47.2
GRHLKNIPRIPIFS [YLR106C 2506-2519] | 198
GLVLRSTPVIPDMK [YPR019W 330-343] | 60.9
GIKVKRIPYSPKSI [YMR309C 639-652] | 15.1
GKDHRLAPNGPGMH [YDR333C 253-266] | 36.4
GKMVKWGPLRPFLS [YOL072W 279-292] | 148
GQIDRDKPSEPERT [YJL184W 45-58] | 43.8
GRSLRKRPTSPSIS [YJR059W 48-61] | 44.9

Biological target: T4, Yhr016c SH3 (YSC84_YEAST), P32793
T4 chain: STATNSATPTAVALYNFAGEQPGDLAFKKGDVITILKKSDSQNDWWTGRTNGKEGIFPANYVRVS
Assay: SPOT array

Binder | normalised SPOT signal, Boehringer light units (BLU); mean over the file's lines of this peptide
GNNSRNIPPPPPPP [YMR089C 148-161] | 15.8
GLDLKWEPSTPQRK [YLR460C 162-175] | 342
GLMSKLGPNLPASI [YLR092W 403-416] | 41.6
GLNLKWEPSTPQRN [YCR102C 154-167] | 152
GSLVKTKPTLPLTK [YLR339C 59-72] | 82.1
GIMIKAKPSSPYTY [YLR260W 30-43] | 197
GQQKRFSPSLPSAV [YKL088W 110-123] | 140
GRHLKNIPRIPIFS [YLR106C 2506-2519] | 69.5
GLVLRSTPVIPDMK [YPR019W 330-343] | 302
GIKVKRIPYSPKSI [YMR309C 639-652] | 15.9
GKDHRLAPNGPGMH [YDR333C 253-266] | 24.5
GKMVKWGPLRPFLS [YOL072W 279-292] | 984
GQIDRDKPSEPERT [YJL184W 45-58] | 37.9
GRSLRKRPTSPSIS [YJR059W 48-61] | 106

Biological target: T5, Yfr024 SH3 (LSB3_YEAST), P43603
T5 chain: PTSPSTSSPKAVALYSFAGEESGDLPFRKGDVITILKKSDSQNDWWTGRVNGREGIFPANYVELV
Assay: SPOT array

Binder | normalised SPOT signal, Boehringer light units (BLU); mean over the file's lines of this peptide
GNNSRNIPPPPPPP [YMR089C 148-161] | 62
GLDLKWEPSTPQRK [YLR460C 162-175] | 1010
GLMSKLGPNLPASI [YLR092W 403-416] | 606
GLNLKWEPSTPQRN [YCR102C 154-167] | 1020
GSLVKTKPTLPLTK [YLR339C 59-72] | 509
GIMIKAKPSSPYTY [YLR260W 30-43] | 662
GQQKRFSPSLPSAV [YKL088W 110-123] | 697
GRHLKNIPRIPIFS [YLR106C 2506-2519] | 947
GLVLRSTPVIPDMK [YPR019W 330-343] | 2380
GIKVKRIPYSPKSI [YMR309C 639-652] | 178
GKDHRLAPNGPGMH [YDR333C 253-266] | 29.4
GKMVKWGPLRPFLS [YOL072W 279-292] | 1990
GQIDRDKPSEPERT [YJL184W 45-58] | 68.7
GRSLRKRPTSPSIS [YJR059W 48-61] | 440

Biological target: T6, Boi2 SH3 (BOI2_YEAST), P39969
T6 chain: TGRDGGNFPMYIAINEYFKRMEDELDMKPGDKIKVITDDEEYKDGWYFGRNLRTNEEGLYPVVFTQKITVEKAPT
Assay: SPOT array

Binder | normalised SPOT signal, Boehringer light units (BLU); mean over the file's lines of this peptide
GNNSRNIPPPPPPP [YMR089C 148-161] | 14.2
GLDLKWEPSTPQRK [YLR460C 162-175] | 6.1
GLMSKLGPNLPASI [YLR092W 403-416] | 40
GLNLKWEPSTPQRN [YCR102C 154-167] | 4.6
GSLVKTKPTLPLTK [YLR339C 59-72] | 25.5
GIMIKAKPSSPYTY [YLR260W 30-43] | 53.5
GQQKRFSPSLPSAV [YKL088W 110-123] | 9.3
GRHLKNIPRIPIFS [YLR106C 2506-2519] | 6.1
GLVLRSTPVIPDMK [YPR019W 330-343] | 126
GIKVKRIPYSPKSI [YMR309C 639-652] | 1.5
GKDHRLAPNGPGMH [YDR333C 253-266] | 4.7
GKMVKWGPLRPFLS [YOL072W 279-292] | 153
GQIDRDKPSEPERT [YJL184W 45-58] | 21
GRSLRKRPTSPSIS [YJR059W 48-61] | 119
